Assay results: the supplement of paper PMC9112550, “Optimization of the antimicrobial peptide Bac7 by deep mutational scanning” (BMC Biology, 2022)

System: Escherichia coli TOP10
Experiment: shrunken log2 fold change of peptide-encoding DNA abundance (4.5 h post-induction vs induction); higher = less antimicrobial activity (less host growth inhibition)
Details: time post-induction: 4.5 h; library: site-saturation at positions 5, 18, 19, 20
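Note: peptides expressed intracellularly from a pBAD plasmid library in pooled LB shake-flask culture, induced with 0.3% L-arabinose, DNA abundance read by NGS, three biological replicates, DESeq2 with apeglm shrinkage.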

Row | Sequence | shrunken log2 fold change
1 | RRIRCRPPRLPRPRPRPKEQPRP | 0.0429
2 | RRIRCRPPRLPRPRPRPKERPRP | 0.238
3 | RRIRCRPPRLPRPRPRPKFEPRP | 0.00386
4 | RRIRCRPPRLPRPRPRPKFGPRP | 0.231
5 | RRIRCRPPRLPRPRPRPKFNPRP | -0.477
6 | RRIRCRPPRLPRPRPRPKGCPRP | 0.00419
7 | RRIRCRPPRLPRPRPRPKHNPRP | -0.325
8 | RRIRCRPPRLPRPRPRPKKKPRP | -0.0938
9 | RRIRCRPPRLPRPRPRPKNEPRP | -0.1
10 | RRIRCRPPRLPRPRPRPKPYPRP | 0.179
11 | RRIRCRPPRLPRPRPRPKQFPRP | -0.188
12 | RRIRCRPPRLPRPRPRPKQMPRP | 0.364
13 | RRIRCRPPRLPRPRPRPKQVPRP | 0.44
14 | RRIRCRPPRLPRPRPRPKRAPRP | 0.778
15 | RRIRCRPPRLPRPRPRPKREPRP | 0.636
16 | RRIRCRPPRLPRPRPRPKSFPRP | -0.288
17 | RRIRCRPPRLPRPRPRPKTFPRP | -0.138
18 | RRIRCRPPRLPRPRPRPKTGPRP | -0.0569
19 | RRIRCRPPRLPRPRPRPKTQPRP | 0.0268
20 | RRIRCRPPRLPRPRPRPKWFPRP | 0.0996
21 | RRIRCRPPRLPRPRPRPKYAPRP | -0.0494
22 | RRIRCRPPRLPRPRPRPLARPRP | 0.0547
23 | RRIRCRPPRLPRPRPRPLCAPRP | 0.12
24 | RRIRCRPPRLPRPRPRPLCKPRP | -0.541
25 | RRIRCRPPRLPRPRPRPLCNPRP | -0.244

Row | Sequence | shrunken log2 fold change
26 | RRIRCRPPRLPRPRPRPLCVPRP | -0.481
27 | RRIRCRPPRLPRPRPRPLDDPRP | -0.119
28 | RRIRCRPPRLPRPRPRPLDWPRP | 0.285
29 | RRIRCRPPRLPRPRPRPLEMPRP | -0.249
30 | RRIRCRPPRLPRPRPRPLFQPRP | -0.417
31 | RRIRCRPPRLPRPRPRPLGAPRP | 0.444
32 | RRIRCRPPRLPRPRPRPLGIPRP | -0.149
33 | RRIRCRPPRLPRPRPRPLHPPRP | 0.199
34 | RRIRCRPPRLPRPRPRPLIAPRP | -0.0852
35 | RRIRCRPPRLPRPRPRPLIPPRP | -0.366
36 | RRIRCRPPRLPRPRPRPLIRPRP | -0.109
37 | RRIRCRPPRLPRPRPRPLITPRP | -0.125
38 | RRIRCRPPRLPRPRPRPLIYPRP | -0.764
39 | RRIRCRPPRLPRPRPRPLKFPRP | -0.162
40 | RRIRCRPPRLPRPRPRPLKLPRP | -0.271
41 | RRIRCRPPRLPRPRPRPLLSPRP | -0.306
42 | RRIRCRPPRLPRPRPRPLMKPRP | -0.275
43 | RRIRCRPPRLPRPRPRPLPDPRP | 0.33
44 | RRIRCRPPRLPRPRPRPLPEPRP | 0.397
45 | RRIRCRPPRLPRPRPRPLPGPRP | 0.262
46 | RRIRCRPPRLPRPRPRPLPRPRP | 0.612
47 | RRIRCRPPRLPRPRPRPLPYPRP | -0.804
48 | RRIRCRPPRLPRPRPRPLQDPRP | 0.0354
49 | RRIRCRPPRLPRPRPRPLQPPRP | -0.0133
50 | RRIRCRPPRLPRPRPRPLSQPRP | 0.0133

Row | Sequence | shrunken log2 fold change
51 | RRIRCRPPRLPRPRPRPLTQPRP | 0.189
52 | RRIRCRPPRLPRPRPRPLVFPRP | -0.317
53 | RRIRCRPPRLPRPRPRPLVVPRP | -0.347
54 | RRIRCRPPRLPRPRPRPLWFPRP | -0.315
55 | RRIRCRPPRLPRPRPRPLWWPRP | 0.204
56 | RRIRCRPPRLPRPRPRPLYHPRP | -0.695
57 | RRIRCRPPRLPRPRPRPMAEPRP | 0.331
58 | RRIRCRPPRLPRPRPRPMCLPRP | -0.201
59 | RRIRCRPPRLPRPRPRPMCRPRP | -0.274
60 | RRIRCRPPRLPRPRPRPMGCPRP | -0.0697
61 | RRIRCRPPRLPRPRPRPMGNPRP | -0.729
62 | RRIRCRPPRLPRPRPRPMIRPRP | -0.0688
63 | RRIRCRPPRLPRPRPRPMKCPRP | -0.173
64 | RRIRCRPPRLPRPRPRPMKHPRP | -0.486
65 | RRIRCRPPRLPRPRPRPMKPPRP | 0.0236
66 | RRIRCRPPRLPRPRPRPMKTPRP | -0.11
67 | RRIRCRPPRLPRPRPRPMLGPRP | -0.0961
68 | RRIRCRPPRLPRPRPRPMLPPRP | -0.00464
69 | RRIRCRPPRLPRPRPRPMLSPRP | -0.202
70 | RRIRCRPPRLPRPRPRPMMVPRP | -0.659
71 | RRIRCRPPRLPRPRPRPMNWPRP | -0.217
72 | RRIRCRPPRLPRPRPRPMPTPRP | 0.592
73 | RRIRCRPPRLPRPRPRPMQAPRP | 0.249
74 | RRIRCRPPRLPRPRPRPMQEPRP | -0.0194
75 | RRIRCRPPRLPRPRPRPMQVPRP | -0.0376

Row | Sequence | shrunken log2 fold change
76 | RRIRCRPPRLPRPRPRPMQWPRP | 0.226
77 | RRIRCRPPRLPRPRPRPMSWPRP | -0.159
78 | RRIRCRPPRLPRPRPRPMTVPRP | -0.0302
79 | RRIRCRPPRLPRPRPRPMTWPRP | -0.383
80 | RRIRCRPPRLPRPRPRPMVIPRP | -0.373
81 | RRIRCRPPRLPRPRPRPMYFPRP | -0.796
82 | RRIRCRPPRLPRPRPRPMYRPRP | -0.319
83 | RRIRCRPPRLPRPRPRPNACPRP | -0.0874
84 | RRIRCRPPRLPRPRPRPNAGPRP | -0.0355
85 | RRIRCRPPRLPRPRPRPNALPRP | 0.0653
86 | RRIRCRPPRLPRPRPRPNCPPRP | -0.413
87 | RRIRCRPPRLPRPRPRPNDCPRP | -0.0147
88 | RRIRCRPPRLPRPRPRPNDGPRP | -0.00783
89 | RRIRCRPPRLPRPRPRPNDHPRP | -0.716
90 | RRIRCRPPRLPRPRPRPNDRPRP | -0.299
91 | RRIRCRPPRLPRPRPRPNEVPRP | -0.153
92 | RRIRCRPPRLPRPRPRPNGAPRP | -0.0129
93 | RRIRCRPPRLPRPRPRPNGWPRP | -0.183
94 | RRIRCRPPRLPRPRPRPNHWPRP | -0.0209
95 | RRIRCRPPRLPRPRPRPNIQPRP | -0.584
96 | RRIRCRPPRLPRPRPRPNKMPRP | -0.393
97 | RRIRCRPPRLPRPRPRPNLCPRP | -0.427
98 | RRIRCRPPRLPRPRPRPNMMPRP | -0.475
99 | RRIRCRPPRLPRPRPRPNNGPRP | -0.451
100 | RRIRCRPPRLPRPRPRPNPIPRP | -0.423

Row | Sequence | shrunken log2 fold change
101 | RRIRCRPPRLPRPRPRPNQFPRP | -0.23
102 | RRIRCRPPRLPRPRPRPNQTPRP | -0.185
103 | RRIRCRPPRLPRPRPRPNRNPRP | -0.562
104 | RRIRCRPPRLPRPRPRPNSYPRP | -0.54
105 | RRIRCRPPRLPRPRPRPNTAPRP | -0.22
106 | RRIRCRPPRLPRPRPRPNTCPRP | -0.463
107 | RRIRCRPPRLPRPRPRPNWEPRP | 0.0349
108 | RRIRCRPPRLPRPRPRPNYAPRP | -0.0784
109 | RRIRCRPPRLPRPRPRPPCAPRP | 0.354
110 | RRIRCRPPRLPRPRPRPPDHPRP | 0.279
111 | RRIRCRPPRLPRPRPRPPDYPRP | 0.0368
112 | RRIRCRPPRLPRPRPRPPFPPRP | 0.302
113 | RRIRCRPPRLPRPRPRPPFWPRP | 0.649
114 | RRIRCRPPRLPRPRPRPPGRPRP | 1.16
115 | RRIRCRPPRLPRPRPRPPIFPRP | -0.197
116 | RRIRCRPPRLPRPRPRPPKVPRP | -0.138
117 | RRIRCRPPRLPRPRPRPPMEPRP | 0.245
118 | RRIRCRPPRLPRPRPRPPPRPRP | 1.9
119 | RRIRCRPPRLPRPRPRPPQAPRP | 0.735
120 | RRIRCRPPRLPRPRPRPPQIPRP | 0.328
121 | RRIRCRPPRLPRPRPRPPQSPRP | 0.839
122 | RRIRCRPPRLPRPRPRPPQWPRP | 0.446
123 | RRIRCRPPRLPRPRPRPPRHPRP | 0.646
124 | RRIRCRPPRLPRPRPRPPSGPRP | 0.233
125 | RRIRCRPPRLPRPRPRPPSSPRP | -0.0857

Row | Sequence | shrunken log2 fold change
126 | RRIRCRPPRLPRPRPRPPSTPRP | -0.0239
127 | RRIRCRPPRLPRPRPRPPSYPRP | -0.457
128 | RRIRCRPPRLPRPRPRPPYDPRP | -0.0699
129 | RRIRCRPPRLPRPRPRPPYNPRP | -0.618
130 | RRIRCRPPRLPRPRPRPQCAPRP | 0.166
131 | RRIRCRPPRLPRPRPRPQCEPRP | -0.128
132 | RRIRCRPPRLPRPRPRPQCYPRP | -0.474
133 | RRIRCRPPRLPRPRPRPQDDPRP | 0.0976
134 | RRIRCRPPRLPRPRPRPQDVPRP | -0.176
135 | RRIRCRPPRLPRPRPRPQEQPRP | 0.0612
136 | RRIRCRPPRLPRPRPRPQFYPRP | -0.782
137 | RRIRCRPPRLPRPRPRPQGAPRP | -0.144
138 | RRIRCRPPRLPRPRPRPQGEPRP | 0.161
139 | RRIRCRPPRLPRPRPRPQGLPRP | 0.161
140 | RRIRCRPPRLPRPRPRPQIEPRP | -0.335
141 | RRIRCRPPRLPRPRPRPQIHPRP | -0.548
142 | RRIRCRPPRLPRPRPRPQITPRP | -0.639
143 | RRIRCRPPRLPRPRPRPQKIPRP | -0.252
144 | RRIRCRPPRLPRPRPRPQKQPRP | 0.0183
145 | RRIRCRPPRLPRPRPRPQLKPRP | -0.194
146 | RRIRCRPPRLPRPRPRPQLLPRP | -0.23
147 | RRIRCRPPRLPRPRPRPQLNPRP | -0.188
148 | RRIRCRPPRLPRPRPRPQLTPRP | -0.147
149 | RRIRCRPPRLPRPRPRPQLVPRP | 0.569
150 | RRIRCRPPRLPRPRPRPQMYPRP | -0.14
